Test results reported in publication PMC12489471, “A multi-dentate, cooperative interaction between endo- and exo-ribonucleases within the bacterial RNA degradosome” (Nucleic Acids Research, 2025).
Substitutions are numbered along the chain they refer to. Numbers in names are those of the source. Entries after “also recorded” stand apart in the source; their conditions may differ.

Experiments:
[1] = SEC-MALLS molar mass of PNPase and PNPase/RNase E complexes; assay type: physicochemical
Description: Estimation of molar masses of PNPase and the various PNPase/RNase E complexes was carried out by size-exclusion chromatography with multi-angle laser light scattering (SEC-MALLS). Proteins (100 μl at ∼1 mg/ml concentration) were loaded onto a Superdex 200 10/300 Increase GL SEC column (GE Healthcare) at 0.5 ml/min using an AKTA Purifier FPLC system ([…]). Chromatograms were acquired using UNICORN software (GE Healthcare) at 280 nm. The eluent from the S200 column was analysed with an online DAWN HELEOS II MALLS instrument with eight detectors (Wyatt Technology), followed by an Optilab T-rEX differential refractometer (Wyatt Technology) at 25°C. Data collection and analysis were performed using ASTRA 6 software (Wyatt Technology). Eluted peaks from SEC column were evaluated by Zimm Plot, using a dn/dc value of 0.1850 ml/g. Bovine serum albumin was used as a standard to confirm the system performance (Supplementary Table S1).

PNPase = target: T1, PNPase (Escherichia coli, UniProt P05055); assay type: binding, E. coli; settings: SPR; for Kd (dissociation rate constant, point mutants and wildtype): 25°C, immobilized PNPase C-His, HEPES pH 7.2, 0, 12.5, 25 and 50 nM (point mutants), contact 120 s, dissociation 120 s, duplicates
T1 construct: made in house; host or cells: E. coli Evo21(DE3)
T1 sequence (P05055 whole entry, looked up): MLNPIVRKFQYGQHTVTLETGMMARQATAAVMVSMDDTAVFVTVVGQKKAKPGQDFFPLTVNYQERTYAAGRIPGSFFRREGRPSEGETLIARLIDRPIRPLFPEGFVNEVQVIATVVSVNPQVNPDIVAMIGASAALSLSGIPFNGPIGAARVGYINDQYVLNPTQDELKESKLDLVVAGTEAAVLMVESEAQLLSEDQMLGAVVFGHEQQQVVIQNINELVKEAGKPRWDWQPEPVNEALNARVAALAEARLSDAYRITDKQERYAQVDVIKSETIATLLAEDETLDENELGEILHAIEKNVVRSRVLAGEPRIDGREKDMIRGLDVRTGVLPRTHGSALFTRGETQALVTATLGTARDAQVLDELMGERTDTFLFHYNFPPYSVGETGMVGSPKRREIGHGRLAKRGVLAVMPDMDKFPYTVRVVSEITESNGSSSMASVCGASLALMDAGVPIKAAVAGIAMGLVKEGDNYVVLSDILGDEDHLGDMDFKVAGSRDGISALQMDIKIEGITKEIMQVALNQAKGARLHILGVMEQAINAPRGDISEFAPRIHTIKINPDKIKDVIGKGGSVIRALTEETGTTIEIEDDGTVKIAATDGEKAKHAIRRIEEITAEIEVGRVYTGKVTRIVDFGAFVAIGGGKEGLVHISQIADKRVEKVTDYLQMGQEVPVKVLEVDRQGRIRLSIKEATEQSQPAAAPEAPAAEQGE
Source text: Briefly, at the N-terminal of the construct, there is an Hisx6 affinity tag that will be used for affinity purification. Following the Hisx6 tag there is an maltose-binding protein (MBP) tag with a TEV cleavage site to maintain solubility of the peptides. Following the MBP tag the gene encoding the peptide is inserted, and is then followed by intein, a self-cleavable tag, followed by a choline-binding domain, which can be used for an extra step of affinity purification. […] After expression, cells were harvested, resuspended in Lysis Buffer 2 (20 mM Tris–HCl, pH 8.0, 80 mM KCl, 300 mM NaCl, 20 mM Imidazole, 0.5 mM TCEP), and lysed with a cell disruptor (Emulsiflex, Avestin). […] After subsequent rounds of washing with Ni Equilibration Buffer supplemented with, respectively, 0.1% Triton-X, 1 M NaCl, and a final wash in Ni Equilibration Buffer, samples were eluted with Ni Elution Buffer (20 mM Tris–HCl, pH 8.0, 300 mM NaCl, 300 mM imidazole, 0.5 mM TCEP). Enriched fractions were then supplemented with 100 mM β-mercaptoethanol to catalyse intein self-cleavage overnight at room temperature. Treated samples were filtered and loaded on an amylose gravity flow column, equilibrated with Amy Equilibration Buffer (20 mM Tris–HCl, pH 8.0, 20 mM NaCl, 20 mM imidazole, 2 mM β-mercaptoethanol) and after washing, His-tagged TEV protease was applied to the resin and incubated at 4°C for 2 h.
PNPase carrying a C-terminal Hisx6 tag was expressed from pExp-cis-Ec_PNP-CHis vector in E. coli Evo21(DE3) cells, induced with 0.4 mM IPTG, at 18°C overnight. After expression, cells were harvested and resuspended in Lysis Buffer 2 (20 mM Tris–HCl, pH 8.0, 80 mM KCl, 300 mM NaCl, 20 mM imidazole, 0.5 mM TCEP), and lysed with a cell disruptor (Emulsiflex, Avestin). […] After subsequent rounds of washing with equilibration buffer supplemented with 0.1% Triton-X, or 1 M NaCl, the sample was eluted with Ni PNPCHis Elution Buffer (20 mM NaH2PO4, pH 8.0, 300 mM NaCl, 300 mM KCl, 5 mM MgCl2, 300 mM imidazole, pH 7.5, 10 mM β-mercaptoethanol). […] Fractions containing PNPase were run through a HiPrep™ 26/10 Desalting Column (GE Healthcare) and buffer exchanged to Q PNPCHis A (20 mM NaH2PO4, pH 8.0, 30 mM NaCl, 10% glycerol, 0.5 mM TCEP).
Interaction measurements were made using a Biacore T200 instrument (GE) at 25°C. PNPase with a 6xHisTag at the CTD was immobilized on a Series S Sensor Chip NTA (Cytiva) to provide a signal of 5 response units (RU). […] For the SPR analysis of the point mutants, binding to PNPase was measured at four different concentrations (0, 12.5, 25, and 50 nM). All concentrations were run in duplicates. The contact time was 60 s, while the dissociation time was 120 s, at a […] flow rate. […] The chip surface was regenerated with 350 mM EDTA in water, following manufacturer's instructions. Data were processed using the manufacturer’s BIAevaluation software.

[2] = Superdex 200, 25°C, buffer A (with 0.01% w/v b-DDM)
[3] = Superdex 200, 25°C, buffer A: 50 mM Tris pH 7.5, 100 mM NaCl, 100 mM KCl, 0.01% w/v b-DDM, 1 mM TCEP
[4] = Superdex 200, 25°C, buffer B: A w/o bDDM
[5] = buffer A (with 0.01% w/v b-DDM)
[6] = buffer A, expected: PNPase trimer, or trimer:RNase E 1:1 ratio
[7] = buffer B, expected: trimer:RNase E 1:1 ratio for complexes
[8] = buffer B: A w/o bDDM, second line in buffer B
[9] = mutant vs wildtype RNase E 960–1061

## Bovine serum albumin: standard to confirm the system performance [reference compound]
[1]; [2]
  Mw weight-averaged solute molar mass: 63,270 Da
[1]; [3]
  Mn number-averaged solute molar mass: 63,250 Da
[1]; [4]
  Mn number-averaged solute molar mass: 63,300 Da
  Mw weight-averaged solute molar mass: 63,350 Da
[1]; [5]
  Polydispersity (Mn/Mw): 1.000
[1]; [6]
  Difference Mn from expected mass: 4.8%
[1]; [7]
  Difference Mn from expected mass: 4.7%
[1]; buffer B, second line in buffer B
  Difference Mn from expected mass: 3.8%
[1]; buffer B: A w/o bDDM
  Polydispersity (Mn/Mw): 1.001
[1]; [8]
  Mn number-averaged solute molar mass: 63,900 Da
  Mw weight-averaged solute molar mass: 64,200 Da
  Polydispersity (Mn/Mw): 1.005

## E. coli PNPase: polynucleotide phosphorylase, trimer
[1]; [2]
  Mw weight-averaged solute molar mass: 204,900 Da
[1]; [3]
  Mn number-averaged solute molar mass: 204,600 Da
[1]; [5]
  Polydispersity (Mn/Mw): 1.001
[1]; [6]
  Difference Mn from expected mass: 11.5%

B1: RNase E 960 – 1061 R1012A: RNase E peptide with point mutation of Arg1012 to alanine (peptide)
chain: VVETAEVVVAEPEVVAQPAAPVVAEVAAEVETVAAVEPEVTVEHNHATAPMTAAPAPEYVPEAPRHSDWQRPTFAFEGKGAAGGHTATHHASAAPARPQPVE
modifications: left off: His6, N-terminal, cleaved | MBP, N-terminal, cleaved | intein, C-terminal, cleaved | choline-binding domain, C-terminal, cleaved
notes: RNase E peptide with point mutation of Arg1012 to alanine
PNPase
  Kd (dissociation rate constant, point mutants and wildtype): 0.052 s⁻¹
PNPase; [9]
  association rate compared to the wildtype, in words: does not significantly affect the KD of the interaction and the association rate
  dissociation rate (off-rate) compared to the wildtype, in words: faster off-rate; also recorded: faster dissociation rate
  effect on KD / binding compared to the wildtype, in words: does not significantly affect the KD of the interaction

B2: RNase E 960 – 1061 R1056A: RNase E peptide with point mutation of Arg1056 to alanine (peptide)
chain: B1 chain with A53R, R97A
modifications: left off: His6, N-terminal, cleaved | MBP, N-terminal, cleaved | intein, C-terminal, cleaved | choline-binding domain, C-terminal, cleaved
notes: RNase E peptide with point mutation of Arg1056 to alanine
PNPase
  Kd (dissociation rate constant, point mutants and wildtype): 0.045 s⁻¹
PNPase; [9]
  KD change compared to the wildtype: roughly 13 fold
  association rate compared to the wildtype, in words: ten-fold slower
  dissociation rate (off-rate) compared to the wildtype, in words: faster off-rate

B3: E. coli PNPase core, lacking S1 and KH domains: truncated PNPase lacking the KH and S1 domains (protein)
chain: MLNPIVRKFQYGQHTVTLETGMMARQATAAVMVSMDDTAVFVTVVGQKKAKPGQDFFPLTVNYQERTYAAGRIPGSFFRREGRPSEGETLIARLIDRPIRPLFPEGFVNEVQVIATVVSVNPQVNPDIVAMIGASAALSLSGIPFNGPIGAARVGYINDQYVLNPTQDELKESKLDLVVAGTEAAVLMVESEAQLLSEDQMLGAVVFGHEQQQVVIQNINELVKEAGKPRWDWQPEPVNEALNARVAALAEARLSDAYRITDKQERYAQVDVIKSETIATLLAEDETLDENELGEILHAIEKNVVRSRVLAGEPRIDGREKDMIRGLDVRTGVLPRTHGSALFTRGETQALVTATLGTARDAQVLDELMGERTDTFLFHYNFPPYSVGETGMVGSPKRREIGHGRLAKRGVLAVMPDMDKFPYTVRVVSEITESNGSSSMASVCGASLALMDAGVPIKAAVAGIAMGLVKEGDNYVVLSDILGDEDHLGDMDFKVAGSRDGISALQMDIKIEGITKEIMQVALNQAKGARLHILGVMEQAINAPRGDISEFA
modifications: left off: Mycobacterium xenopi GyrA intein, C-terminal, cleaved | His8, C-terminal, cleaved
[1]; [2]
  Mw weight-averaged solute molar mass: 163,600 Da
[1]; [3]
  Mn number-averaged solute molar mass: 163,300 Da
[1]; [5]
  Polydispersity (Mn/Mw): 1.002
[1]; [6]
  Difference Mn from expected mass: 8.7%

B4: RNase E 583-1061, avi-tagged: avi-tagged RNase E 583-1061 (protein)
chain: SGGEETKPTEQPAPKAEAKPERQQDRRKPRQNNRRDRNERRDTRSERTEGSDNREENRRNRRQAQQQTAETRESRQQAEVTEKARTADEQQAPRRERSRRRNDDKRQAQQEAKALNVEEQSVQETEQEERVRPVQPRRKQRQLNQKVRYEQSVAEEAVVAPVVEETVAAEPIVQEAPAPRTELVKVPLPVVAQTAPEQQEENNADNRDNGGMPRRSRRSPRHLRVSGQRRRRYRDERYPTQSPMPLTVACASPELASGKVWIRYPIVRPQDVQVEEQREQEEVHVQPMVTEVPVAAAIEPVVSAPVVEEVAGVVEAPVQVAEPQPEVVETTHPEVIAAAVTEQPQVITESDVAVAQEVAEQAEPVVEPQEETADIEEVVETAEVVVAEPEVVAQPAAPVVAEVAAEVETVAAVEPEVTVEHNHATAPMTRAPAPEYVPEAPRHSDWQRPTFAFEGKGAAGGHTATHHASAAPARPQPVE
modifications: left off: Avi tag, end not stated, kept
[1]; [4]
  Mn number-averaged solute molar mass: 52,930 Da
  Mw weight-averaged solute molar mass: 53,310 Da
[1]; [7]
  Difference Mn from expected mass: 4.7%
[1]; buffer B: A w/o bDDM
  Polydispersity (Mn/Mw): 1.007
